{"source": "patent US20260062487A1", "about": "(GRITSTONE BIO, published 2026)", "binders": {"B1": {"name": "41-E07 hOKT3a diabody (Format 41 31E07-CD3 bispecific antibody) (bispecific antibody, human IgG1, kappa)", "chain": "QVQLVQSGAEVKKPGASVKVSCKASGFTFTNYLIHWVRQAPGQGLEWMGWINPNSGGTNYAQRLQGRVTMTRDTSTSTVYMELSSLRSEDTAVYYCARDYGAGNDYWGQGTLVTVSSGGGGSGGGGSDIQMTQSPSSLSASVGDRVTITCRASQEIRRWLAWYQQKPGKAPKLLIYAASNLQSGVPSRFSGSGSGTDFTLTISSLQPEDFATYYCQQSYSTPYTFGQGTKLEIKGGGGSEPKSSDKTHTCPPCPAPEFEGGPSVFLFPPKPKDTLMISRTPEVTCVVVDVSHEDPEVKFNWYVDGVEVHNAKTKPREEQYNSTYRVVSVLTVLHQDWLNGKEYKCKVSNKALPASIEKTISKAKGQPREPQVYTLPPCREEMTKNQVSLWCLVKGFYPSDIAVEWESNGQPENNYKTTPPVLDSDGSFFLYSKLTVDKSRWQQGNVFSCSVMHEALHNHYTQKSLSLSPGK", "heavy": "QVQLVQSGAEVKKPGASVKVSCKASGFTFTNYLIHWVRQAPGQGLEWMGWINPNSGGTNYAQRLQGRVTMTRDTSTSTVYMELSSLRSEDTAVYYCARDYGAGNDYWGQGTLVTVSSGGGGSGGGGSDIQMTQSPSSLSASVGDRVTITCRASQEIRRWLAWYQQKPGKAPKLLIYAASNLQSGVPSRFSGSGSGTDFTLTISSLQPEDFATYYCQQSYSTPYTFGQGTKLEIKGGGGSGGGGSQVQLVQSGAEVKKPGASVKVSCKASGYTFTRYTMHWVRQAPGQGLEWMGYINPSRGYTNYNQKFKDRVTLTTDKSSSTAYMELSSLRSEDTAVYYCARYYDDHYSLDYWGQGTLVTVSSASTKGPSVFPLAPSSKSTSGGTAALGCLVKDYFPEPVTVSWNSGALTSGVHTFPAVLQSSGLYSLSSVVTVPSSSLGTQTYICNVNHKPSNTKVDKRVEPKSCDKTHTCPPCPAPEFEGGPSVFLFPPKPKDTLMISRTPEVTCVVVDVSHEDPEVKFNWYVDGVEVHNAKTKPREEQYNSTYRVVSVLTVLHQDWLNGKEYKCKVSNKALPASIEKTISKAKGQPREPQVCTLPPSREEMTKNQVSLSCAVKGFYPSDIAVEWESNGQPENNYKTTPPVLDSDGSFFLVSKLTVDKSRWQQGNVFSCSVMHEALHNRFTQKSLSLSPGK", "light": "DIQMTQSPSSLSASVGDRVTITCSASSSVSYMNWYQQKPGKAPKRLIYDTSKLASGVPSRFSGSGSGTDFTLTISSLQPEDFATYYCQQWSSNPFTFGQGTKLEIKRTVAAPSVFIFPPSDEQLKSGTASVVCLLNNFYPREAKVQWKVDNALQSGNSQESVTEQDSKDSTYSLSSTLTLSKADYEKHKVYACEVTHQGLSSPVTKSFNRGEC", "notes": "also called E07-CD3 diabody; 41-31E07-hOKT3a"}}, "key": {"[1]": {"target": "T1, HLA-PEPTIDE target A*01:01_… (G2) on cells (human)", "T1 construct": "whole, on cells; also recovered from cell lysates in the IP-MS experiment; also called G2 pHLA; G2 target", "assay": "flow cytometry, anti IgG PE, A375 9mer cells (1e6 copies per cell)", "description": "A375 transduced with luciferase alone served as the negative control. […] Binding was determined by flow cytometery using an anti IgG-PE antibody for detection."}, "[2]": {"target": "T1, HLA-PEPTIDE target A*01:01_… (G2) on …", "assay": "flow cytometry, anti-IgG PE, peptide-pulsed K562 cells", "description": "(§1) HLA-transduced K562 cells were pulsed the night before with 50 μM of peptide (Genscript) in IDMEM containing 1% FBS in 6 well plates and incubated under standard tissue culture conditions. Cells were harvested, washed in PBS, and stained with eBioscience Fixable Viability Dye eFluor 450 for 15 minutes at room temperature. […] After another wash, PE-conjugated goat anti-human IgG secondary antibody (Jackson ImmunoResearch) was added at 1:100. After incubating at 4° C. for 45 minutes and washing in PBS+2% FBS, cells were resuspended in PBS+2% FBS and analyzed by flow cytometry. Flow cytometric analysis was performed on the Attune NxT Flow Cytometer (ThermoFisher) using the Attune NxT Software. Data was analyzed using FlowJo."}, "[3]": {"target": "T2, off-target HLA-A*01:01_… (PTS) on cells (human)", "T2 construct": "whole, on cells; also called validated OTLA; Control peptide-3", "assay": "IP-MS, NCI-H1703 lysate, Rep2", "description": "(§2) 2×10⁸ cells expressing A*01:01/CT83 (NCI-H1703, A375±CT83) were re-suspended in 5 ml lysis buffer (1% CHAPS, 150 mM sodium chloride, 20 mM Tris pH 8) in the presence of phosphatase, and protease inhibitors. The cells were homogenized by sonication, rotated at 4° C. for 1 hr, and spun at 21,000×g for 30 min. to pellet cell debris.\n(§3) After immunoprecipitation, the IP beads were isolated using filter plates, then washed to remove non-specific binding using Tris pH 8 buffers with increasing levels of NaCl. The HLA/peptide complex was eluted from the beads using 2N acetic acid. The protein components were removed from the peptides using C18 fractionation. The resultant peptides were taken to dryness by SpeedVac evaporation and stored at −20° C. prior to MS analysis."}, "[4]": {"target": "T1, HLA-PEPTIDE target A*01:01_… (G2) on …", "assay": "IP-MS, NCI-H1703 lysate, Rep2", "description": "as §2, §3"}, "[5]": {"target": "T3, HLA-A*01:01 with … (ERGIC3) from cells (human)", "T3 construct": "whole, on cells", "assay": "IP-MS, NCI-H1703 lysate, Rep2", "description": "as §2, §3"}, "[6]": {"target": "T4, off-target HLA-A*01:01_… (ICE1) on cells (human)", "T4 construct": "whole, on cells; also called … (IC1); validated OTLA", "assay": "IP-MS, NCI-H1703 lysate, Rep2", "description": "as §2, §3"}, "[7]": {"target": "T1, HLA-PEPTIDE target A*01:01_… (G2) on …", "assay": "flow cytometry, anti IgG PE, A375 9mer cells (1e6 copies of G2 pHLA per cell)"}, "[8]": {"target": "T3, HLA-A*01:01 with … (ERGIC3) from cells", "assay": "IP-MS, K562-A*01:01 lysate (ND: Not detected; W6/32 recovers the peptide)", "description": "as §2, §3"}, "[9]": {"target": "T5, G5 pHLA (HLA-B*35:01 with …) on cells (human)", "T5 construct": "whole, on cells", "assay": "flow cytometry, peptide-pulsed cells", "description": "as §1"}, "[10]": {"target": "T2, off-target HLA-A*01:01_… (PTS) on cells", "assay": "IP-MS, NCI-H1703 lysate, Rep1", "description": "as §2, §3"}, "[11]": {"target": "T1, HLA-PEPTIDE target A*01:01_… (G2) on …", "assay": "IP-MS, NCI-H1703 lysate, Rep1", "description": "as §2, §3"}, "[12]": {"target": "T3, HLA-A*01:01 with … (ERGIC3) from cells", "assay": "IP-MS, NCI-H1703 lysate, Rep1", "description": "as §2, §3"}, "[13]": {"target": "T4, off-target HLA-A*01:01_… (ICE1) on cells", "assay": "IP-MS, NCI-H1703 lysate, Rep1", "description": "as §2, §3"}, "[14]": {"target": "T1, HLA-PEPTIDE target A*01:01_… (G2) on …", "assay": "flow cytometry, anti-IgG PE, K562-A01:01 cells pulsed with peptide (20,000 to 40,000 copies/cell)", "description": "as §1"}, "[15]": {"target": "T6, off-target HLA-A*01:01_… (KDM7A) on cells (human)", "T6 construct": "whole, on cells; also called validated OTLA; Control peptide-4", "assay": "flow cytometry, anti-IgG PE, K562-A01:01 cells pulsed with peptide (20,000 to 40,000 copies/cell)", "description": "as §1"}, "CD3 on CD3+ Jurkat cells": {"target": "T7, CD3 on CD3+ Jurkat cells (human, UniProt P07766 23-207)", "T7 construct": "whole, on cells", "T7 sequence (P07766 23-207)": "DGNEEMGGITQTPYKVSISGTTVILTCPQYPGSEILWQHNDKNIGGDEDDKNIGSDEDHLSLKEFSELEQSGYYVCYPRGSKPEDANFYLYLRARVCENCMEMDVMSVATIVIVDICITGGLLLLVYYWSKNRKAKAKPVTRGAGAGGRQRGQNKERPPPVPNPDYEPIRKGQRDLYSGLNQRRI", "assay": "flow cytometry, anti IgG PE, CD3+ Jurkat cells", "description": "Increasing concentrations of the antibodies were incubated with CD3(+) and CD9(−) Jurkat cells. Binding was determined by flow cytometery using an anti IgG-PE antibody for detection."}, "[16]": {"target": "T1, HLA-PEPTIDE target A*01:01_… (G2) on …", "assay": "cell-based or functional assay"}, "[17]": {"target": "T8, A*01:01 with … (V or E 1) on pulsed K562-HLA cells (human)", "T8 construct": "whole, on cells", "assay": "flow cytometry, K562-HLA cells pulsed with peptide"}, "[18]": {"target": "T1, HLA-PEPTIDE target A*01:01_… (G2) on …", "assay": "flow cytometry, K562-HLA cells pulsed with peptide"}, "[19]": {"target": "T9, A*01:01 with … (V or E 2) on pulsed K562-HLA cells (human)", "T9 construct": "whole, on cells", "assay": "flow cytometry, K562-HLA cells pulsed with peptide"}, "[20]": {"target": "T10, A*01:01 with … (V or E 4) on pulsed K562-HLA cells (human)", "T10 construct": "whole, on cells", "assay": "flow cytometry, K562-HLA cells pulsed with peptide"}, "[21]": {"target": "T11, A*01:01 with … (V or E 6) on pulsed K562-HLA cells (human)", "T11 construct": "whole, on cells", "assay": "flow cytometry, K562-HLA cells pulsed with peptide"}, "[22]": {"target": "T12, A*01:01 with … (V or E 3) on pulsed K562-HLA cells (human)", "T12 construct": "whole, on cells", "assay": "flow cytometry, K562-HLA cells pulsed with peptide"}, "[23]": {"target": "T13, A*01:01 with … (V or E 5) on pulsed K562-HLA cells (human)", "T13 construct": "whole, on cells", "assay": "flow cytometry, K562-HLA cells pulsed with peptide"}}, "data": [{"binder": "B1", "values": [{"measurement": "EC50 (read off the curve)", "setting": "[1]", "value": "~2", "unit": "nM"}, {"measurement": "EC50 (read off the curve)", "setting": "[2]", "value": "~0.06", "unit": "µg/mL"}, {"measurement": "copies per cell of the peptide recovered by immunoprecipitation", "setting": "[3]", "value": 42, "unit": "copies per cell"}, {"measurement": "copies per cell of the peptide recovered by immunoprecipitation", "setting": "[4]", "value": 2960, "unit": "copies per cell"}, {"measurement": "copies per cell of the peptide recovered by immunoprecipitation", "setting": "[5]", "value": 37, "unit": "copies per cell"}, {"measurement": "copies per cell of the peptide recovered by immunoprecipitation", "setting": "[6]", "value": 32, "unit": "copies per cell"}, {"measurement": "EC50 (read off the curve)", "setting": "[7]", "value": "~3", "unit": "nM"}, {"measurement": "binding result", "setting": "[8]", "value": "no binding"}, {"measurement": "log difference in EC50 against the G2 peptide [..]", "setting": "[9]", "value": 3, "unit": "log"}, {"measurement": "copies per cell of the peptide recovered by immunoprecipitation", "setting": "[10]", "value": 40, "unit": "copies per cell"}, {"measurement": "copies per cell of the peptide recovered by immunoprecipitation", "setting": "[11]", "value": 2960, "unit": "copies per cell"}, {"measurement": "copies per cell of the peptide recovered by immunoprecipitation", "setting": "[12]", "value": 34, "unit": "copies per cell"}, {"measurement": "copies per cell of the peptide recovered by immunoprecipitation", "setting": "[13]", "value": 33, "unit": "copies per cell"}, {"measurement": "EC50 (read off the curve)", "setting": "[14]", "value": "~0.3", "unit": "µg/mL"}, {"measurement": "binding result", "setting": "[15]", "value": "no binding (tested: 100 ug/ml)"}, {"measurement": "EC50 (read off the curve)", "setting": "CD3 on CD3+ Jurkat cells", "value": "~20", "unit": "nM"}, {"measurement": "EC50 (ug/ml), luciferase-cytotoxicity assay with human T cells, A375-CT83 cells", "setting": "[16]", "value": 0.00017, "unit": "µg/mL"}, {"measurement": "EC50 (ug/ml), luciferase-cytotoxicity assay with human T cells, NCI-H820 cells", "setting": "[16]", "value": 0.077, "unit": "µg/mL"}, {"measurement": "EC50 (ug/ml), luciferase-cytotoxicity assay with human T cells, NCI-H1703 cells", "setting": "[16]", "value": 0.0025, "unit": "µg/mL"}, {"measurement": "Max Binding", "setting": "[17]", "value": 1880}, {"measurement": "Max Binding", "setting": "[18]", "value": 5560}, {"measurement": "Max Binding", "setting": "[19]", "value": 4680}, {"measurement": "Max Binding", "setting": "[20]", "value": 1560}, {"measurement": "Max Binding", "setting": "[21]", "value": 1400}, {"measurement": "Max Binding", "setting": "[22]", "value": 5680}, {"measurement": "Max Binding", "setting": "[23]", "value": 2630}]}]}
